The text below walks through data of PMC9631798 (2022).

Residue numbers refer to the chain shown, from its start. Names and notes keep the numbering of the source. Values joined by “and” are separate entries in the source; they are usually repeats but may differ in a detail not shown here. Identical values can stand only once.

The target of experiment [1] is F5111 IC LN15 (human, UniProt P60568 21-153). The experiment in a line: BLI.
In experiment [2] the target is F5111 IC LN25 (human, UniProt P60568 21-153). The experiment in a line: BLI. (BLI is a label-free optical method that tracks binding on a fibre tip over time.)
In experiment [3] the target is F5111.2 IC LN35 (human, UniProt P60568 21-153). The experiment in a line: BLI.
Experiment [4] addresses F5111 IC LN35 (human, UniProt P60568 21-153). The experiment in a line: BLI.
The target in experiment [5] is Control (FITC-E2) IC LN35 (human, UniProt P60568 21-153). The experiment can be described thus: BLI.
In experiment [6] the target is hIL-2/F5111.2 complex (1:1 molar ratio) (human, UniProt P60568 21-153). The experiment in a line: BLI.
In experiment [7] the target is hIL-2/F5111 complex (1:1 molar ratio) (human, UniProt P60568 21-153). The experiment in a line: BLI.
Experiment [8] has as its target T1, Biotinylated human IL-2 (human, UniProt P60568 21-153, biotin on the biotin acceptor peptide (BirA ligase)). The experiment in a line: BLI.
The target in experiment [9] is T1, Biotinylated human IL-2. The experiment can be described thus: BLI; Fig S1E.
The target of experiment [10] is yeast-displayed hIL-2 (residues 1-133) (human, UniProt P60568 21-153). The experiment can be described thus: FACS; yeast surface display.
Chain of yeast-displayed hIL-2 (residues 1-133) (P60568 21-153): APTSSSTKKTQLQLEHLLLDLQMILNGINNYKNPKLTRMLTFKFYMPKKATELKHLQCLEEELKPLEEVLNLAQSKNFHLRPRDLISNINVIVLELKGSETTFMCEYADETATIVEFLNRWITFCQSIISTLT

T1 sequence (P60568 21-153): as above

B1: Biotinylated human IL-2Rβ extracellular domain (residues 1-214) (receptor)
chain: AVNGTSQFTCFYNSRANISCVWSQDGALQDTSCQVHAWPDRRRWNQTCELLPVSQASWACNLILGAPDSQKLTTVDIVTLRVLCREGVRWRVMAIQDFKPFENLRLMAPISLQVVHVETHRCNISWEISQASHYFERHLEFEARTLSPGHTWEEAPLLTLKQKQEWICLETLTPDTQYEFQVRVKPLQGEFTTWSPWSQPLAFRTKPAALGKDT
modifications: biotin on the biotin acceptor peptide (BirA ligase)
Turning to B1, the equilibrium dissociation constant (Kd) – broadly, the free concentration of one partner at which half of the binding sites on the other are occupied at equilibrium, for simple one-to-one binding – in experiment [1] is 210 nM; in experiment [2], more than 2000 nM; in [3], more than 2000 nM; in experiment [4], more than 2000 nM; in experiment [5], 4.1 nM and 4.4 nM; in experiment [6], more than 2000 nM. The Kd in experiment [7] is more than 2000 nM.

B2: Biotinylated human IL-2Rα extracellular domain (residues 1-217) (receptor)
chain: ELCDDDPPEIPHATFKAMAYKEGTMLNCECKRGFRRIKSGSLYMLCTGNSSHSSWDNQCQCTSSATRNTTKQVTPQPEEQKERKTTEMQSPMQPVDQASLPGHCREPPPWENEATERIYHFVVGQMVYYQCVQGYRALHRGPAESVCKMTHGKTRWTQPQLICTGEMETSQFPGEEKPQASPEGRPESETSCLVTTTDFQIQTEMAATMETSIFTTE
modifications: biotin on the biotin acceptor peptide (BirA ligase)
B2: the dissociation constant Kd in [1] was 7.5 nM; in [3], 2.4 nM; in [4], 3.2 nM and 3 nM; in [5], 2.5 nM and 3.4 nM; in experiment [6], 68 nM; in [7] it was 18 nM.

B3: F5111.2 Antibody (N297A) (antibody, V domains shown)
VH: QLQLQESGPGLVKPSQTLSLTCTVSGGSISSGGYYWSWIRQHPGKGLEWIGYIYKSGSAYYSPSLKSRVTISVDTSKNQFSLKLSSVTAADTAVYYCARTPTVTGDWFDPWGRGTLVTVSS
VL: NFMLTQPHSVSESPGKTVTISCTRSSGSIASNYVQWYQQRPGSSPTTVIYEDNQRPSGVPDRFSGSIDSSSNSASLTISGLKTEDEADYYCQTYDSIDVYFGGGTKLTVL
As for B3, the affinity in experiment [8], expressed as Kd, was 4.9 nM.

B4: F5111 antibody (antibody, V domains shown)
VH: B3 VH with K55Y, A59T, S62N
VL: B3 VL with T93S, I97S, D98N, Y100V
Take B4: the results for the Kd in experiment [8], in experiment [9] and in experiment [10] were 2.7 nM, 2.1 nM and 0.42 nM, respectively.
